Experimental data: PMC9913352

Biological target: untagged human Nit1 isoform 4 (human)
Assay: SEC; untagged proteins after on-column TEV cleavage, Superdex 200-HR, 50 mM Tris/HCl pH 8.0, 100 mM NaCl, 2 mM MgCl2, 0.3 mL/min; calibrated with marker proteins

untagged human Nit1 isoform 4 (natural protein)
stoichiometry N: 4
